PMC6557900 (Nature Communications, 2019)
Where no end group is shown, it is not given here. [ ]: non-standard residue; d: D form. pY = N[C@@H](Cc1ccc(OP(=O)(O)O)cc1)C(=O)O

B1: EpoR_pY426 peptide, alanine at pY(+1) (peptide)
chain: ASFE[pY]AILDPS-NH2
modifications: N-terminus assumed
SMILES: CC[C@H](C)[C@H](NC(=O)[C@H](C)NC(=O)[C@H](Cc1ccc(OP(=O)(O)O)cc1)NC(=O)[C@H](CCC(=O)O)NC(=O)[C@H](Cc1ccccc1)NC(=O)[C@H](CO)NC(=O)[C@H](C)N)C(=O)N[C@@H](CC(C)C)C(=O)N[C@@H](CC(=O)O)C(=O)N1CCC[C@H]1C(=O)N[C@@H](CO)C(N)=O
B2: EpoR_pY426 peptide, alanine at pY(+6) (peptide)
chain: ASFE[pY]TILDPA-NH2
modifications: N-terminus assumed
SMILES: CC[C@H](C)[C@H](NC(=O)[C@@H](NC(=O)[C@H](Cc1ccc(OP(=O)(O)O)cc1)NC(=O)[C@H](CCC(=O)O)NC(=O)[C@H](Cc1ccccc1)NC(=O)[C@H](CO)NC(=O)[C@H](C)N)[C@@H](C)O)C(=O)N[C@@H](CC(C)C)C(=O)N[C@@H](CC(=O)O)C(=O)N1CCC[C@H]1C(=O)N[C@@H](C)C(N)=O
B3: GHR_pY487 phosphopeptide (growth hormone receptor) (peptide)
peptide: NIDF[pY]AQVSDI-NH2
notes: growth hormone receptor (GHR), 11-residue peptide around pY487; source: synthetic peptide (solid-phase, Fmoc, Rink amide resin), HPLC purified

These binders were tested against T1, SOCS2-ElonginB-ElonginC complex, wild-type (human | , UniProt O14508 32-198; Q15370 1-104; Q15369 17-112) (assay: 19F ligand-observed CPMG NMR displacement assay; peptide (GHR 10 μM, EpoR 50 μM) displaces the fluorinated pY analog spy molecule 3 (100 μM) from SBC (5 μM); 20 mM HEPES pH 8, 50 mM NaCl, 1 mM DTT, 20% D2O, 298 K). Settings: both partners purified.
T1 sequence (O14508 32-198, chain 1 of 3): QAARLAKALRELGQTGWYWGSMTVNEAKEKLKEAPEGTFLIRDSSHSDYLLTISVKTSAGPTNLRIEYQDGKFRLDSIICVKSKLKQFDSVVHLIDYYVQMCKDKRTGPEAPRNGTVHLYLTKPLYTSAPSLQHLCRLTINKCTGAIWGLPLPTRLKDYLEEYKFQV
T1 sequence (Q15370 1-104, chain 2 of 3): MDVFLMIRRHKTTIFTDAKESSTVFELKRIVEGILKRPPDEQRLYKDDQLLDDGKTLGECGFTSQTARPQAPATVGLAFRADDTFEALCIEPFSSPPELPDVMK
T1 sequence (Q15369 17-112, chain 3 of 3): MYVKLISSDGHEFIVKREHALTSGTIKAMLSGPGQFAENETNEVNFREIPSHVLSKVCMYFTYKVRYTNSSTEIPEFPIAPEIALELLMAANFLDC

Binder | Ki
PAPD[pY]TSIHIV-NH2 [GHR_pY595 peptide, alanine at pY(−3)] | 3.4 µM
PVPD[pY]ASIHIV-NH2 [GHR_pY595 peptide, alanine at pY(+1)] | 0.5 µM
PVPD[pY]TSAHIV-NH2 [GHR_pY595 peptide, alanine at pY(+3)] | 3.4 µM
PVPD[pY]TSIAIV-NH2 [GHR_pY595 peptide, alanine at pY(+4)] | 18.5 µM
ASFA[pY]TILDPS-NH2 [EpoR_pY426 peptide, alanine at pY(−1)] | 23.5 µM
B1 | 10.3 µM
ASFE[pY]TALDPS-NH2 [EpoR_pY426 peptide, alanine at pY(+2)] | 17.2 µM
ASFE[pY]TIADPS-NH2 [EpoR_pY426 peptide, alanine at pY(+3)] | 20.4 µM
ASFE[pY]TILAPS-NH2 [EpoR_pY426 peptide, alanine at pY(+4)] | 14.1 µM
ASFE[pY]TILDAS-NH2 [EpoR_pY426 peptide, alanine at pY(+5)] | 6.9 µM
B2 | 11.3 µM
PRPD[pY]TSIHIV-NH2 [GHR_pY595 peptide V(−3)R] | 20.6 µM
PYPD[pY]TSIHIV-NH2 [GHR_pY595 peptide V(−3)Y] | 3.3 µM

The binders below were run against T1, SOCS2-ElonginB-ElonginC complex, … (assay: SPR; biotinylated SBC (wild-type or mutant) immobilised, peptide injected at 0.08-60 μM; 20 mM HEPES pH 7.5, 150 mM NaCl, 1 mM TCEP, 0.005% Tween20, 10 °C; steady-state affinity, 1:1 model). Settings: both partners purified.

Binder | Kd
PVPD[pY]ASIHIV-NH2 [GHR_pY595 peptide, alanine at pY(+1)] | 1 µM
PVPD[pY]TSAHIV-NH2 [GHR_pY595 peptide, alanine at pY(+3)] | 3.7 µM
PVPD[pY]TSIAIV-NH2 [GHR_pY595 peptide, alanine at pY(+4)] | 6.7 µM
PVPD[pY]TSIHIA-NH2 [GHR_pY595 peptide, alanine at pY(+6)] | 1.9 µM
ASFA[pY]TILDPS-NH2 [EpoR_pY426 peptide, alanine at pY(−1)] | 21.7 µM
B1 | 17.1 µM
ASFE[pY]TALDPS-NH2 [EpoR_pY426 peptide, alanine at pY(+2)] | 30.8 µM
ASFE[pY]TIADPS-NH2 [EpoR_pY426 peptide, alanine at pY(+3)] | 32.3 µM
ASFE[pY]TILAPS-NH2 [EpoR_pY426 peptide, alanine at pY(+4)] | 18 µM
ASFE[pY]TILDAS-NH2 [EpoR_pY426 peptide, alanine at pY(+5)] | 8.9 µM
B2 | 16.4 µM
PRPD[pY]TSIHIV-NH2 [GHR_pY595 peptide V(−3)R] | 9 µM
PYPD[pY]TSIHIV-NH2 [GHR_pY595 peptide V(−3)Y] | 3.3 µM

The binders below were run against T2, SOCS2-ElonginB-ElonginC complex, wild-type (human | , UniProt O14508 32-198; Q15370 1-104; Q15369 17-112) (assay: ITC; peptide (750 or 1500 μM) titrated into SBC (50 μM); 100 mM HEPES pH 7.5, 50 mM NaCl, 0.5 mM TCEP, 298 K; one-set-of-site model). Settings: both partners purified.
T2 construct: Untagged in ITC and NMR; also called SBC; wild-type SBC; source: E. coli BL21(DE3), co-expressed, purified (HisTrap, TEV cleavage, second HisTrap, SEC Superdex 75); not shown: His6, N-terminal, cleaved; copies: + +
T2 sequence (O14508 32-198, chain 1 of 3): as the sequence (O14508 32-198, chain 1 of 3) above
T2 sequence (Q15370 1-104, chain 2 of 3): as the sequence (Q15370 1-104, chain 2 of 3) above
T2 sequence (Q15369 17-112, chain 3 of 3): as the sequence (Q15369 17-112, chain 3 of 3) above

Binder | Kd
B3 | 2300 nM

The binders below were run against T3, SOCS2(L106V)-ElonginB-ElonginC complex (human | , UniProt O14508 32-198; Q15370 1-104; Q15369 17-112, L106V) (assay: SPR; biotinylated SBC (wild-type or mutant) immobilised, peptide injected at 0.08-60 μM; 20 mM HEPES pH 7.5, 150 mM NaCl, 1 mM TCEP, 0.005% Tween20, 10 °C; steady-state affinity, 1:1 model). Settings: both partners purified.
T3 construct: also called SBC L106V; source: E. coli BL21(DE3), co-expressed, purified (as wild-type SBC); not shown: His6, N-terminal, cleaved; copies: + +
T3 sequence (O14508 32-198 L106V, chain 1 of 3): as the sequence (O14508 32-198, chain 1 of 3) above, with L75V counted along it
T3 sequence (Q15370 1-104, chain 2 of 3): as the sequence (Q15370 1-104, chain 2 of 3) above
T3 sequence (Q15369 17-112, chain 3 of 3): as the sequence (Q15369 17-112, chain 3 of 3) above

Binder | Kd
B3 | 8.9 µM

The binders below were run against T4, SOCS2(C133Y)-ElonginB-ElonginC complex (human | , UniProt O14508 32-198; Q15370 1-104; Q15369 17-112, C133Y) in the same assay as above. Settings: both partners purified.
T4 construct: also called SBC C133Y; source: E. coli BL21(DE3), co-expressed, purified (as wild-type SBC); not shown: His6, N-terminal, cleaved; copies: + +
T4 sequence (O14508 32-198 C133Y, chain 1 of 3): as the sequence (O14508 32-198, chain 1 of 3) above, with C102Y counted along it
T4 sequence (Q15370 1-104, chain 2 of 3): as the sequence (Q15370 1-104, chain 2 of 3) above
T4 sequence (Q15369 17-112, chain 3 of 3): as the sequence (Q15369 17-112, chain 3 of 3) above

Binder | Kd
B3 | 7.7 µM

Each binder was assayed against T2, SOCS2-ElonginB-ElonginC complex, … in the same assay as above. Settings: both partners purified.

Binder | Kd
B3 | 5.1 µM
